Reference: US20100003237

B1: Wild type hMMP-1 clone BAP006-2 (expressed in CHO-S cells), activated with AMPA (protein)
chain: FVLTEGNPRWEQTHLTYRIENYTPDLPRADVDHAIEKAFQLWSNVTPLTFTKVSEGQADIMISFVRGDHRDNSPFDGPGGNLAHAFQPGPGIGGDAHFDEDERWTNNFREYNLHRVAAHELGHSLGLSHSTDIGALMYPSYTFSGDVQLAQDDIDGIQAIYGRSQNPVQPIGPQTPKACDSKLTFDAITTIRGEVMFFKDRFYMRTNPFYPEVELNFISVFWPQLPNGLEAAYEFADRDEVRFFKGNKYWAVQGQNVLHGYPKDIYSSFGFPRTVKHIDAALSEENTGKTYFFVANKYWRYDEYKRSMDPGYPKMIAHDFPGIGHKVDAVFMKDGFFYFFHGTRQYKFDPKTKRILTLQKANSWFNCRKN
B2: hMMP-1 (purchased from R&D Systems, #901-MP), activated with AMPA (protein)
chain: B1 chain
B3: Wild type hMMP-1 clone BAP006-10 (pET303CTHis, expressed in BL21 (DE3) E. coli), activated with AMPA (protein)
chain: FVLTEGNPRWEQTHLTYRIENYTPDLPRADVDHAIEKAFQLWSNVTPLTFTKVSEGQADIMISFVRGDHRDNSPFDGPGGNLAHAFQPGPGIGGDAHFDEDERWTNNFREYNLHRVAAHELGHSLGLSHSTDIGALMYPSYTFSGDVQLAQDDIDGIQAIYGRSQNPVQPIGPQTPKACDSKLTFDAITTIRGEVMFFKDRFYMRTNPFYPEVELNFISVFWPQLPNGLEAAYEFADRDEVRFFKGNKYWAVQGQNVLHGYPKDIYSSFGFPRTVKHIDAALSEENTGKTYFFVANKYWRYDEYKRSMDPGYPKMIAHDFPGIGHKVDAVFMKDGFFYFFHGTRQYKFDPKTKRILTLQKANSWFNCRKNHHHHH
B4: cathepsin S (R&D systems, activated) (protein)
chain: LPDSVDWREKGCVTEVKYQGSCGACWAFSAVGALEAQLKLKTGKLVSLSAQNLVDCSTEKYGNKGCNGGFMTTAFQYIIDNKGIDSDASYPYKAMDQKCQYDSKYRAATCSKYTELPYGREDVLKEAVANKGPVSVGVDARHPSFFLYRSGVYYEPSCTQNVNHGVLVVGYGDLNGKEYWLVKNSWGHNFGEEGYIRMARNKGNHCGIASFPSYPEI

Key:
[1] = target: insoluble collagen conjugated to fluorescein isothiocyanate (FITC) (Anaspec #85111 or Sigma Collagen #C4361)
[2] = target: FITC-labeled collagen (Elastin #CF308)
[3] = target: FITC-labeled collagen (Sigma #C4361)
[4] = target: Soluble rat tail collagen Type I, P02454
Chain of Soluble rat tail collagen Type I, P02454 (P02454 152-1207, chain 1 of 2): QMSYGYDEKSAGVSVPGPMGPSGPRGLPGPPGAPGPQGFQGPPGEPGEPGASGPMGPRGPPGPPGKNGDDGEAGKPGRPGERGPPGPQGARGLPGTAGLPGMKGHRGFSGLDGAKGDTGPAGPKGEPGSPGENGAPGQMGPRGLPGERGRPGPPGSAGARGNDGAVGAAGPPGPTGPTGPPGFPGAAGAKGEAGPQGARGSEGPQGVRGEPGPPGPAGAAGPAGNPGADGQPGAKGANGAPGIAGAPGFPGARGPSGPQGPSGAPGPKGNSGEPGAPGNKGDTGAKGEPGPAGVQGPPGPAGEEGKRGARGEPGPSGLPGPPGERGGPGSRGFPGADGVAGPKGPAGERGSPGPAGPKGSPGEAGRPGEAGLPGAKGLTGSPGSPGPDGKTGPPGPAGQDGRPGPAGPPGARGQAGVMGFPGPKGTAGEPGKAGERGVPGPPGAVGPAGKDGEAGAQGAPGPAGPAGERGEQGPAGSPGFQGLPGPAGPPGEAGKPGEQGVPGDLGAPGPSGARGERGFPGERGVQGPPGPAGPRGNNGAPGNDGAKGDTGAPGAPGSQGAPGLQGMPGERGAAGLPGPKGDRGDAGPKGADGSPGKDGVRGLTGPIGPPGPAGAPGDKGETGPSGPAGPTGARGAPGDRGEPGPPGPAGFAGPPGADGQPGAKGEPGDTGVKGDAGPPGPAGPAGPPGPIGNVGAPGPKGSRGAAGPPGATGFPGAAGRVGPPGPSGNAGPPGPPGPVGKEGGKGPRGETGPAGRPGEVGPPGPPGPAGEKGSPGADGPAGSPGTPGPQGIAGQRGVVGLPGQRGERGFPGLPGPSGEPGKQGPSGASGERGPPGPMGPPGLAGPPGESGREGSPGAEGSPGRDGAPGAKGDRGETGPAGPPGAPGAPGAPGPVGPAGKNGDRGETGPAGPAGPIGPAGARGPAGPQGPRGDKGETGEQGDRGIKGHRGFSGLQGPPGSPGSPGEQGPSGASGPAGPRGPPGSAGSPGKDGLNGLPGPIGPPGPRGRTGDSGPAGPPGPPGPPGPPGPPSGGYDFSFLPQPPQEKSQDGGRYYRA
Chain of Soluble rat tail collagen Type I, P02454 (chain, as listed by the source, chain 2 of 2): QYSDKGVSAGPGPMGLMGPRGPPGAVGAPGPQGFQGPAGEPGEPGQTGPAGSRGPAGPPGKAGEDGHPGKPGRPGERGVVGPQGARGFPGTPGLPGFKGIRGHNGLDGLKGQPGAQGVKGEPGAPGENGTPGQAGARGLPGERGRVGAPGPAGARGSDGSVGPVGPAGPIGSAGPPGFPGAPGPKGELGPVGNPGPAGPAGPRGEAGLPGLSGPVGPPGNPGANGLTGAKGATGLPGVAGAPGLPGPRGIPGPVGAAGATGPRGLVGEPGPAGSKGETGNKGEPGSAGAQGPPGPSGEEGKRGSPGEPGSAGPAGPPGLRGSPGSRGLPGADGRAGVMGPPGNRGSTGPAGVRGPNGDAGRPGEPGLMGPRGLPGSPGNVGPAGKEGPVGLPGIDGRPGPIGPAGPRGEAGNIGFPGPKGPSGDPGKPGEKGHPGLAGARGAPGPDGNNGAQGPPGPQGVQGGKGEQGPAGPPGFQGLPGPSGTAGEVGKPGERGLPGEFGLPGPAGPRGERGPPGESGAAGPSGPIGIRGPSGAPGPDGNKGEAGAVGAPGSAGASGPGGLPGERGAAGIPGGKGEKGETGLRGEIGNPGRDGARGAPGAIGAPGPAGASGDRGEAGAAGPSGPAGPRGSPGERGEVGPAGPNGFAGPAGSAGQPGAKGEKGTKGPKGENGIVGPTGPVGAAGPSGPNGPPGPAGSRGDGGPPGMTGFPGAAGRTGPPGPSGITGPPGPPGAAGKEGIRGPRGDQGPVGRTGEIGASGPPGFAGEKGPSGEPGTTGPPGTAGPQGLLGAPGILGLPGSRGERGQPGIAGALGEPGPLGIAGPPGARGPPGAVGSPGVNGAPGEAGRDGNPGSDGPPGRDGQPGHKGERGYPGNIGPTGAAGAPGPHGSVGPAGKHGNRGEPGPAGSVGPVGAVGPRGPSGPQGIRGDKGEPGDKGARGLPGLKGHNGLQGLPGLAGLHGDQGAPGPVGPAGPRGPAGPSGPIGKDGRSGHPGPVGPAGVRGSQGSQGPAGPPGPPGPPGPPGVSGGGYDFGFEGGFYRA

Row | Protein | cleavage of insoluble collagen (7.5% SDS polyacrylamide gel, Coomassie Blue) [1] | RFU, 37° C. (fluorescence of supernatant after 144 hours, replicate 1) [2] | RFU, 37° C. (fluorescence of supernatant after 144 hours, replicate 2) [2] | RFU, Avg 37° C. (fluorescence of supernatant after 144 hours) [2] | RFU, 37° C. (fluorescence of supernatant after 144 hours, replicate 1) [3] | RFU, 37° C. (fluorescence of supernatant after 144 hours, replicate 2) [3] | RFU, Avg 37° C. (fluorescence of supernatant after 144 hours) [3] | degradation of soluble rat tail collagen Type I (1 hour at 37° C., SDS-Page gels, Coomassie Blue staining) [4]
1 | B1 | after 24 hours incubation at 25 °C or 37° C., hMMP-1 partially cleaved the α1(I) and α2(I) collagen chains into ¾ and ¼ length digestion products for all hMMP-1 proteins tested | 1730 RFU | 2300 RFU | 2010 RFU | 1270 RFU | 1280 RFU | 1270 RFU | –
2 | B2 | after 24 hours incubation at 25 °C or 37° C., hMMP-1 partially cleaved the α1(I) and α2(I) collagen chains into ¾ and ¼ length digestion products for all hMMP-1 proteins tested | 3490 RFU | 2980 RFU | 3240 RFU | 1160 RFU | 1140 RFU | 1150 RFU | –
3 | B3 | after 24 hours incubation at 25 °C or 37° C., hMMP-1 partially cleaved the α1(I) and α2(I) collagen chains into ¾ and ¼ length digestion products for all hMMP-1 proteins tested | 2670 RFU | 3060 RFU | 2860 RFU | 1290 RFU | 1340 RFU | 1310 RFU | –
4 | B4 | – | – | – | – | – | – | – | Cathepsins B, D and S showed some slight degradation of rat collagen at the manufacture specified pH and no degradation of rat collagen at pH 8.0
